Source: patent CN116813758A (INST MICROBIOLOGY CAS, dated 2023)

Target: SARS-CoV-2原始毒株的RBD蛋白 (SARS-CoV-2 RBD-his) (SARS-CoV-2原始毒株, UniProt P0DTC2 319-541)

B1: 单链纳米抗体S43 (S43-his蛋白) (VHH)
VHH: QVQLQESGGGLVQPGGSLRLTCAPSGFTLDYYAIGWFRQAPGKEREGVSCISSNNSTYYADSVKGRFTISRDNAKNTVYLQMNSLKPEDTAVYYCAAEPDYSGVYYYTCGWTDFGSWGQGTQVTVSS
  Kd: 0.12 nM
